The chains are these.
B1: PA341 (ssRNA)
RNA: GGGAGACAAGAAUAAACGCUCAAGCCCCAAACGCAAGCGAGCAUCCGCAACAGGGAAGAAGACAGACGAAUGAUUCGACAGGAGGCUCACAACAGGC
modifications: 2'-NH2 C and U
B2: PF411 (ssRNA)
RNA: GGGAGACAAGAAUAAACGCUCAACAACCCAACCAUCUAGAGCUUCGAACCAUGGUAUACAAGGGAACACAAAAUUCGCGGAGGCUCCAACAGGCGGC
modifications: 2'-F C and U
B3: PF380 (ssRNA)
RNA: GGGAGACAAGAAUAAACGCUCAACGAGCAAAAGUACUCACGGGACCAGGAGAUCAGCAACACGCGAGACGAAAUUCGACAGGAGGCUCACAACAGGC
modifications: 2'-F C and U
B4: PF381 (ssRNA)
RNA: GGGAGACAAGAAUAAACGCUCAAAGGAUCACACAAACAUCGGUCAAUAAAUAAGUAUUGAUAGCGGGGAUAUUCGACAGGAGGCUCACAACAGGC
modifications: 2'-F C and U
B5: PF422 (ssRNA)
RNA: GGGAGACAAGAAUAAACGCUCAACGUCAAGCCAGAAUCCGGAACACGCGAGAAAACAAAUCAACGACCAAUCGAUUCGACAGGAGGCUCACAAAGGC
modifications: 2'-F C and U
B6: PA330 (ssRNA)
RNA: GGGAGACAAGAAUAAACGCUCAAAACGCACAAAGUAAGGGACGGGAUGGAUCGCCCUAGGCUGGAAGGGAACUUCGACAGGAGGCUCACAACAGGC
modifications: 2'-NH2 on all C and U
B7: PA341 (ssRNA)
RNA: GGGAGACAAGAAUAAACGCUCAAGCCCCAAACGCAAGCGAGCAUCCGCAACAGGGAAGAAGACAGACGAAUGAUUCGACAGGAGGCUCACAACAGGC
modifications: 2'-NH2 on all C and U
B8: PA477 (ssRNA)
RNA: GGGAGACAAGAAUAAACGCUCAAGCCCCAAACGCAAGUGAGCAUCCGCAACAGGGAAGAAGACAGACGAAUGAUUCGACAGGAGGCUCACAACAGGC
modifications: 2'-NH2 on all C and U [2'-NH2 on all C and U; n18 in fixed region = G]
B9: PA338 (ssRNA)
RNA: GGGAGACAAGAAUAAACGCUCAAUCAAGUAAGGAGGAAGGGUCGUGACAGAAAAACGAGCAAAAAACGCGAGUUCGACAGGAGGCUCACAACAGGC
modifications: 2'-NH2 on all C and U
B10: PA337 (ssRNA)
RNA: GGGAGACAAGAAUAAACGCUCAAACAGCUACAAGUGGGACAACAGGGUACAGCGGAGAGAAACAUCCAAACAAGUUCGACAGGAGGCUCACAACAGGC
modifications: 2'-NH2 on all C and U
B11: PA328 (ssRNA)
RNA: GGGAGACAAGAAUAAACGCUCAAGCAAAAGGCGUAAAUACACCUCCGCAACUGGGAAGAAGACGCAGGGACGGUUCGACAGGAGGCUCACAACAGGC
modifications: 2'-NH2 on all C and U [2'-NH2 on all C and U; N83 in fixed region = A]
B12: PA335 (ssRNA)
RNA: GGGAGACAAGAAUAAACGCUCAAUGAUAUACACGUAAGCACUGAACCAGGCUGAGAUCCAUCAGUGCCCAGGUUCGACAGGAGGCUCACAACAGGC
modifications: 2'-NH2 C and U
B13: PA336 (ssRNA)
RNA: GGGAGACAAGAAUAAACGCUCAAGAUCAUAACGAGAGGAGAGGGAGAACUACACGCGCGCGAGGAAAGAGUUCGACAGGAGGCUCACAACAGGC
modifications: 2'-NH2 C and U
B14: PA301 (ssRNA)
RNA: GGGAGACAAGAAUAAACGCUCAAACACAAAUCGGGCAGGGACUGGGUUGGGCACGGCAGGGCGCCUUCGACAGGAGGCUCACAACAGGC
modifications: 2'-NH2 C and U
B15: PA315 (ssRNA)
RNA: GGGAGACAAGAAUAAACGCUCAAUAACAAAGCAGCAAAGUACCAGAGGAGAGUUGGCAGGGUUUAGGCAGCUUCGACAGGAGGCUCACAACAGGC
modifications: 2'-NH2 C and U
B16: PA325 (ssRNA)
RNA: GGGAGACAAGAAUAAACGCUCAAACGAGAGCACCAAGGCAACAGAUGCAGAAGAAGUGUGCGCGCGCGAAAUUCGACAGGAGGCUCACAACAGGC
modifications: 2'-NH2 C and U
B17: PA447 (ssRNA)
RNA: GGGAGACAAGAAUAAACGCUCAAAACAGAACUGAUCGGCGCAGGUUGAUAAAGGGGCAGCGCGAAGAUCACAAUUCGACAGGAGGCUCACAACAGGC
modifications: 2'-NH2 C and U
B18: PA342 (ssRNA)
RNA: GGGAGACAAGAAUAAACGCUCAACCAACGCGCACCCCGCAGCAAACGAAAUUGGGGAGACAGGUGCAAGACAGUUCGACAGGAGGCUCACAACAGGC
modifications: 2'-NH2 C and U
B19: PA327 (ssRNA)
RNA: GGGAGACAAGAAUAAACGCUCAAUAAGACAACGAACAGACAGAAGCGAAAAAGGGGCGCCGCAGCAACAACAAAUUCGACAGGAGGCUCACAACAGGC
modifications: 2'-NH2 C and U
B20: PA318 (ssRNA)
RNA: GGGAGACAGAAUAAACGCUCAAAGACCAAGGGACAGCAGCGGGGAAAAACAGAUCACAGCUGUAAGAGGGCUUCGACAGGAGGCUCACAACAGGC
modifications: 2'-NH2 C and U
B21: PA354 (ssRNA)
RNA: GGGAGACAAGAAUAAACGCUCAAGCAAUGGAACGCUAGGAGGGAACAUAAGCAGGGCGAGCGGAGUCGAUAGCUUCGACAGGAGGCUCACAACAGGC
modifications: 2'-NH2 C and U
B22: PA352 (ssRNA)
RNA: GGGAGACAAGAAUAAACGCUCAAGAUCAUCGCAGUAUCGGAAUCGACCCUCAGUGGGUGACAUGCGGACAAGUUCGACAGGAGGCUCACAACAGGC
modifications: 2'-NH2 C and U
B23: PA329 (ssRNA)
RNA: GGGAGACAAGAAUAAACGCUCAAGAAGGAUACUUAGGACUACGUGGGAUGGGAUGAAAUGGGAGAACGGGAGUUCGACAGGAGGCUCACAACAGGC
modifications: 2'-NH2 C and U
B24: PA320 (ssRNA)
RNA: GGGAGACAAGAAUAAACGCUCAAGAGUAUCACACAAACCGGCACGGACUAAGCAGAAGGAGGUACGGAAGAUUCGACAGGAGGCUCACAACAGGC
modifications: 2'-NH2 C and U
B25: PA351 (ssRNA)
RNA: GGGAGACAAGAAUAAACGCUCAAUGAUAGCACAGUGUAUAAGAAAACGCAACACCGCGCGCGGAAAGAGUUCGACAGGAGGCUCACAACAGGC
modifications: 2'-NH2 C and U
B26: PA463 (ssRNA)
RNA: GGGAGACAAGAAUAAACGCUCAAGGGAAACGGAAAGGGACAAGGCGAACAGACGAGAAGUAGACGGAGUAGGAUUCGACAGGAGGCUCACAACAGGC
modifications: 2'-NH2 C and U
B27: PA319 (ssRNA)
RNA: GGGAGACAAGAAUAAACGCUCAAAGUCGGGGAUAGAAACACACUAAGAAGUGCAUCAGGUAGGAGAUAAUUCGACAGGAGGCUCACAACAGGC
modifications: 2'-NH2 C and U [all C and U 2'-NH2]
B28: PA353 (ssRNA)
RNA: GGGAGACAAGAAUAAACGCUCAAGUACCGGGAAGGGAUGAACUGGGAUAUGGGAACGGAGGUCAGAGGCACGAUUCGACAGGAGGCUCACAACAGGC
modifications: 2'-NH2 C and U

A value given as a limit tells only on which side of the number the result lay.

In the first series the target is T1, P-selectin (PS-Rg) (Homo sapiens, UniProt P16109 P16109:42-321). The series can be described thus: inhibition; sialyl-LewisX. Conditions: tags: human IgG Fc fusion; chain copies: 2 (stated dimer). As for the experimental part: The ability of evolved RNA pools or cloned ligands to inhibit the binding of PS-Rg to sialyl-Lewis^x was tested in competitive ELISA assays (C. Foxall et al., 1992, supra). For these assays, the wells of Corning (25801) 96 well microtiter plates were coated with 100 ng of a sialyl-Lewis^x/BSA conjugate, air dried overnight, washed with 300 μl of PBS(−) and then blocked with 1% BSA in HSMC for 60 min at room temperature. RNA ligands were incubated with PS-Rg in HSMC/1% BSA at room temperature for 15 min. After removal of the blocking solution, 50 μl of PS-Rg (10 nM) or a PS-Rg (10 nM)/RNA ligand mix was added to the coated, blocked wells and incubated at room temperature for 60 minutes. The binding solution was removed, wells were washed with 300 μl of PBS(−) and then probed with HRP conjugated anti-human IgG, at room temperature to quantitate PS-Rg binding. After a 30 minute incubation at room temperature in the dark with OPD peroxidase substrate (Sigma P9187), the extent of PS-Rg binding and percent inhibition was determined from the OD₄₅₀.
T1 sequence (P16109 42-321, one chain of several): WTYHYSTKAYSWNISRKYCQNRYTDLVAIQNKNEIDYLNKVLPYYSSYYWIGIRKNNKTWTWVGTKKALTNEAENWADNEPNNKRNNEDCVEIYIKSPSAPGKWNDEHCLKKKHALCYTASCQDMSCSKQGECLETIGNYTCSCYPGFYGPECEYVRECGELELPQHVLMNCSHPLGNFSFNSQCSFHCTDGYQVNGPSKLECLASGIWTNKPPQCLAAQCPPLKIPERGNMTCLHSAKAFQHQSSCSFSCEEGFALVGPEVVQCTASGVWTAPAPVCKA
The molecule CUCAACGAAUCAGUAAACAUAACACCAUGAAACAUAAAUAGCACGCGAG (ssRNA, 2'-F C and U) [PF373s1] returned an IC50 of 3 nM.

Turning to CUCAACGAGCCAGGACUACGAUCAGCAAACGCGAG (ssRNA, 2'-F C and U) [PF377L1], half-maximal inhibition (IC50) was put at 4 nM. Same read-out and setting: to CUCAACGCACCAGGAACAACGAGAACCAUCAGUAAACGCGAG (ssRNA, 2'-F C and U) [PF387s1] belongs 2 nM; to CUCAACGCACCAGGAACAACAAGAACCAUCAGUAAGCGCGAG (ssRNA, 2'-F C and U) [PF383s1], 25 nM; to B1, 3 nM. On the same count and under the same terms, to B2 belongs 2 nM; to B3, 4 nM; to GAAUCCGGAACACGCGAGAAAACAAAUCAACGACCAAUCGAUUCG (ssRNA, 2'-F C and U) [PF422s1], 8 nM.

As for B4, the half-maximal inhibitory concentration (IC50) was determined as 1 nM. As to B5, inhibition was half-maximal at 3 nM (IC50).

The molecule CUCAACGAGCCAGGAACAUCGACGUCAGCAAACGCGAG (ssRNA, 2'-F C and U) [PF377s1] gave a concentration for half-maximal inhibition (IC50) of 2 nM. In the case of CUCAACGAGCCAGGAACAUCGACGUCAGCAAACGCGAG (ssRNA, 2'-F C and U, 5' NH2) [PF377s1-5'NH2], it took 2 nM to reach half-maximal inhibition (IC50). This counts as single-digit nanomolar. Same read-out and setting: to CUCAACGAGCCAGGAACAUCGACGUCAGCAAACGCGAG (ssRNA, 2'-F C and U; 2'-OMe G 7,9,14 and A 8,15,18,27,31) [PF377M5] belongs 2 nM.

Another series concerns the target T1, P-selectin (PS-Rg). The series can be described thus: filter; 37 C. Conditions: tags: human IgG1 Fc fusion; chain copies: dimer; label: 32P.
In turn, B6 came in with a Kd of 0.237 nM.

In turn, B7 yielded a Kd of 0.44 nM.

Molecule B8 returned a Kd of 0.57 nM. Still for that read-out and setting: to B9 belongs 57 nM; to B10, 4.5 nM; to B11, 3 nM.

Still in this series, the particulars now being: tags: human IgG Fc fusion; chain copies: 2 (stated dimer).
For B12, the affinity, expressed as Kd, was 10.5 nM. Same read-out and setting: as for B13, the figure is 15 nM; as for B14, 2.5 nM.

Take B15: the Kd stood at 5 nM.

B16 had a Kd of over 10 nM. Still for that read-out and setting: as for B17, the figure is 50 nM; as for B18, 4 nM; as for B19, 13.5 nM.

In turn, B20 returned a Kd of 2 nM. In turn, B21 returned a Kd of 5 nM. The same measure, in the same setting: to B22 belongs 6 nM; to B23, 4 nM; to B24, 4.5 nM. Consider B25, for which the Kd came to 2 nM.

The molecule B26 came in with a Kd of 8 nM. On to B27, for which the Kd amounted to 11 nM. Take B28: binding was characterised by a dissociation constant (Kd) of 9 nM.

The term IC50 denotes the concentration at which inhibition is half-maximal. Read a low IC50 as higher potency. As usually defined, the Kd is the concentration at which binding is half-saturated.

Source of the values: patent publication US20030059769, “High affinity nucleic acid ligands to lectins” (published 2003).
